Earlier results on one substance are cited in paper PMC3925188.

“And” between values parts separate entries of the source, which are not always exact repeats. Equal entries are not always repeated.

The target of this data set is Histone H3K4me3 H3K4me3 (Homo sapiens) (UniProt P68431).

Sequence of KMT2A PHD3 (Q03164 1566-1627): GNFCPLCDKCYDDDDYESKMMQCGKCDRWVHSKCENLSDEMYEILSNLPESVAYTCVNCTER

As to KMT2A PHD3 (from UniProt Q03164), the Kd was 30 µM and 19 µM and 4 µM.

As a reminder, the Kd is the constant that tells how readily two partners part at equilibrium.
